Results taken from PMC10516644.

Target: MSL2-FLAG (Drosophila) (UniProt P50534)
Experiment: co-IP

UniProt P50534, sequence (P50534 whole entry): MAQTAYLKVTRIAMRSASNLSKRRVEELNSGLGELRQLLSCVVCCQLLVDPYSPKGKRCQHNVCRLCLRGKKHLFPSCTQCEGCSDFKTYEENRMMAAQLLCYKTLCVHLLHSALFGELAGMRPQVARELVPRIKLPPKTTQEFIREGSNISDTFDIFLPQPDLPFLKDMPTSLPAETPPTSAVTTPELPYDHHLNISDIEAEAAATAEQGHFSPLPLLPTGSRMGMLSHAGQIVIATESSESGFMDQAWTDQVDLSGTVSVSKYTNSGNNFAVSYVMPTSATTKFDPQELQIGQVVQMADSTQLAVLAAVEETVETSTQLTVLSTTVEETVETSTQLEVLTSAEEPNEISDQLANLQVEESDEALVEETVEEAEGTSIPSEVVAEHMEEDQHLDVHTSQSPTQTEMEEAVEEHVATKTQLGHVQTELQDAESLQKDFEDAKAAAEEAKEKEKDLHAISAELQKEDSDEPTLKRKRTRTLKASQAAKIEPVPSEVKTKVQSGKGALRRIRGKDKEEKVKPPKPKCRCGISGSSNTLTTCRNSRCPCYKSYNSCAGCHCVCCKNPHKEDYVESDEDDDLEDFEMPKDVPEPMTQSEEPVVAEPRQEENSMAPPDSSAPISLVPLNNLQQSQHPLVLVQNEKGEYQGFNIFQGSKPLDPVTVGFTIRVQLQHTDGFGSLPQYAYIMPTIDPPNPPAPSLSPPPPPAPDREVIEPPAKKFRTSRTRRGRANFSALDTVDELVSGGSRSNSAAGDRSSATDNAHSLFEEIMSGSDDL

With “CLAMP-ΔZF1-FLAG (from UniProt Q9V9N4 1-561) (natural protein)” the percent co-immunoprecipitated (bound fraction normalised to input) was less than 1%.
